{
  "source": "paper PMC12375888",
  "about": "(Febs Letters, 2025)",
  "key": {"[1]": {"target": "T1, Mycobacterium tuberculosis thiosulfate sulfurtransferase SseA (Mycobacterium tuberculosis, UniProt P9WHF7 1-297, RED-NHS dye on primary amines (lysine residues), degree of labeling ~0.5, in the MST experiment only)", "T1 sequence": "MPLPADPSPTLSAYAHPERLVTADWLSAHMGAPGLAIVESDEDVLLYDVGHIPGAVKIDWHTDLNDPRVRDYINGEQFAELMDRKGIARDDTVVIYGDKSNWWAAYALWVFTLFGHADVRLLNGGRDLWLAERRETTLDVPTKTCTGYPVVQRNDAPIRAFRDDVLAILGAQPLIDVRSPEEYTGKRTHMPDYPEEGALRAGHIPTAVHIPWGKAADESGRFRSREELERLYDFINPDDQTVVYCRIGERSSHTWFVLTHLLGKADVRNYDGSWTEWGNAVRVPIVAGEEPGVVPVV", "test": "cell-based or functional assay"}, "[2]": {"target": "T1, Mycobacterium tuberculosis thiosulfate …", "test": "ITC; 10 uM SseA in the cell titrated with 100 uM SufE; PBS pH 8.0 (phosphate 20 mM, NaCl 150 mM, DTT 2 mM), 25 °C; single binding site model", "conditions": "both partners purified"}, "[3]": {"target": "T1, Mycobacterium tuberculosis thiosulfate …", "test": "MST; 10 nM SseA labelled with RED-NHS dye, label-free SufE Mtb titrated from 1.5 nM to 50 uM; 25 °C, 50 mM sodium phosphate pH 7.8, 0.05% Tween-20; Monolith NT.115", "conditions": "both partners purified"}},
  "data": [
    {"binder": "Mycobacterium tuberculosis SufE-like protein Rv3284 (SufE Mtb) (natural protein, Tag-free after TEV cleavage; also called SseE; not shown: His6, N-terminal, cleaved; GST, N-terminal, cleaved) MTAPASLPAPLAEVVSDFAEVQGQDKLRLLLEFANELPALPSHLAESAMEPVPECQSPLFLHVDASDPNRVRLHFSAPAEAPTTRGFASILAAGLDEQPAADILAVPEDFYTELGLAALISPLRLRGMSAMLARIKRRLREAD", "values": [
      {"measurement": "thiosulfate:cyanide sulfurtransferase activity of 10 uM SseA with increasing SufE Mtb (10-100 uM)", "setting": "[1]", "value": 4, "unit": "fold"},
      {"measurement": "Kd", "setting": "[2]", "value": "3.3 ± 0.6", "unit": "µM"},
      {"measurement": "dH", "setting": "[2]", "value": -11.6, "unit": "kcal/mol"},
      {"measurement": "stoichiometry N", "setting": "[2]", "value": 1},
      {"measurement": "Kd", "setting": "[3]", "value": "3 ± 0.7", "unit": "µM"}
    ]}
  ]
}
